According to patent US20240166705A1:

Legend:
[1] = molecular target: XENP37827 (IL18×Fab-Fc fusion with WT-4CS IL18 and a silent Fv) (human); assay: cell-based or functional assay
[2] = molecular target: XENP38865 (IL18×Fab-Fc fusion, IL18 4CS/K53A, silent Fv) (human); assay: cell-based or functional assay
Sequence of XENP38865 (IL18×Fab-Fc fusion, IL18 4CS/K53A, silent Fv) (human) (Q14116 other isoform, or with tags, fused parts or gaps K53A K53A): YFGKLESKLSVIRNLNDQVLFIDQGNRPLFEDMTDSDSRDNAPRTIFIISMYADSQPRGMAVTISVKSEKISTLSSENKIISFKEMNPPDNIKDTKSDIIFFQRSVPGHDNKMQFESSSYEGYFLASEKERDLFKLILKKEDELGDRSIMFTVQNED

Sequence of XENP37827 (IL18×Fab-Fc fusion with WT-4CS IL18 and a silent Fv) (human) (Q14116 other isoform, or with tags, fused parts or gaps): as the sequence (Q14116 other isoform, or with tags, fused parts or gaps K53A K53A) above, with A53K counted along it

IC50 of dose dependent inhibition of KG-1 cell activation (induction of PD-L1 expression) by IL18BP at fixed concentration (10 nM) of the IL18 fusion [1]: 5.5 nM
IC50 of dose dependent inhibition of KG-1 cell activation (induction of PD-L1 expression) by IL18BP at fixed concentration (10 nM) of the IL18 fusion [2]: 88.7 nM
Substance: IL18 binding protein (IL18BP) (from UniProt O95998 31-194)
